Laboratory results taken from PMC5838018, “The Conserved ESCRT-III Machinery Participates in the Phagocytosis of Entamoeba histolytica” (Frontiers in Cellular and Infection Microbiology, 2018).

T1: EhVps32 (Entamoeba histolytica (endogenous in …, UniProt C4M1A5 1-204))
T1 construct: EhVps32, Entamoeba histolytica ESCRT-III protein (ortholog of yeast Snf7/Vps32 and human CHMP4), endogenous in trophozoites; Precipitated and detected with the mouse polyclonal α-rEhVps32 antibody; also called EhVps32 protein; source: endogenous, E. histolytica trophozoites (lysate for immunoprecipitation; fixed, permeabilized cells for flow cytometry)
T1 sequence: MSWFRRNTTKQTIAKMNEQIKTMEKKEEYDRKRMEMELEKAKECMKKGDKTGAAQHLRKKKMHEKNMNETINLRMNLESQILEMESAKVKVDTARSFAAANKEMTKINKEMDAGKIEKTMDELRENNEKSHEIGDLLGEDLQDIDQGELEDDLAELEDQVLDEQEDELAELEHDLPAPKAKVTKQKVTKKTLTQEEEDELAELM

B1: EhVps24 (natural protein)
chain: MGNLNSQTVDNSFQQKQFELKVNRDNLSKREKEYQNNIEKLNKEARKYCRKGDKENAKRQIKLRTLYETNLKEIRCYLDQTETILIQLEASKRNYDVAKLMDESNKEIKKILNKIPKNFIEEIINTKKENSDKLKEIDSLYEQLNDIDNENQIEQELNKLALEVMSEKEGGIEAVKNEVIAESLPEVNSQSDMLISKQNIVIETF
notes: EhVps24, Entamoeba histolytica ESCRT-III protein, endogenous in trophozoites; also called EhVps24 protein; source: endogenous, E. histolytica trophozoites (lysate for immunoprecipitation; fixed, permeabilized cells for flow cytometry)

Experiments:
EhVps32 = target: T1, EhVps32; assay: flow cytometry on cells; PFA-fixed, Triton X-100 permeabilized trophozoites after 0, 5 and 30 min of erythrophagocytosis, stained with couples of primary antibodies and secondary antibodies with distinct fluorochromes; percent association of each couple; details: partners not purified
EhVps24 = target: B1; assay: as above; details: partners not purified

| Binder | percent interaction, 30 min of erythrophagocytosis (EhVps32) | percent interaction, 30 min of erythrophagocytosis (EhVps24) |
| --- | --- | --- |
| B1 | ~47% | – |
| EhVps20 (natural protein, EhVps20, Entamoeba histolytica ESCRT-III protein, predicted 206 amino acids, endogenous in trophozoites; also called EhVps20 protein; source: endogenous, E. histolytica trophozoites (lysate for immunoprecipitation; fixed, permeabilized cells for flow cytometry)) MLNRFIGKNEEPSIDETHAILESRVTDLDQKIVDLDRQIRQNIEMSHKTTGAESQRYKQKALMLLKQKKQHEQHRDITERHQMNLENVQFQVDQMKDYKKVYDAMAASNRQMKLISRQFDINSIEDVQDSMMNFAEDQQEFGDILSQDITNMDLNELDDELAELGDSMFEGDIQIPESDGFGSVPITNEPFRQKEESQPDDKKFAI | ~47% | – |
| EhVps2 (natural protein, EhVps2, Entamoeba histolytica ESCRT-III protein, endogenous in trophozoites; also called EhVps2 protein; source: endogenous, E. histolytica trophozoites (lysate for immunoprecipitation; fixed, permeabilized cells for flow cytometry)) MSRLFHKKTPQEIVREQKLNISKSIREITRESKRLEREEVRLTNEIRKMARLGRTNTVKVMAADLVKTKKQIDKLQVVIAQLNSTKMKLTEMSSMVAVTEAMNGVTNAMRKVNEATKLPAMQKVMNDFEKQNAELGIKNTMVSDMVNEGYEGDDIEEETELEVDKVLTEIGLDVENGLKPVPETRQRNTRLKERRQVQMEGGVKTRNEGNEQPEDLDTPGSRVPKAFNEGEDDEDEDDIVSRIANL | – | 10% |
